Measurements reported in publication doi:10.1101/786475 (bioRxiv, 2019).

Columns and labels:
Experiment in all cases: peptide or protein array
[1] = biological target: T1, Aip1p (spotted on the yeast ProtoArray) (S. cerevisiae, UniProt P46680 1-615)
T1 sequence (looked up): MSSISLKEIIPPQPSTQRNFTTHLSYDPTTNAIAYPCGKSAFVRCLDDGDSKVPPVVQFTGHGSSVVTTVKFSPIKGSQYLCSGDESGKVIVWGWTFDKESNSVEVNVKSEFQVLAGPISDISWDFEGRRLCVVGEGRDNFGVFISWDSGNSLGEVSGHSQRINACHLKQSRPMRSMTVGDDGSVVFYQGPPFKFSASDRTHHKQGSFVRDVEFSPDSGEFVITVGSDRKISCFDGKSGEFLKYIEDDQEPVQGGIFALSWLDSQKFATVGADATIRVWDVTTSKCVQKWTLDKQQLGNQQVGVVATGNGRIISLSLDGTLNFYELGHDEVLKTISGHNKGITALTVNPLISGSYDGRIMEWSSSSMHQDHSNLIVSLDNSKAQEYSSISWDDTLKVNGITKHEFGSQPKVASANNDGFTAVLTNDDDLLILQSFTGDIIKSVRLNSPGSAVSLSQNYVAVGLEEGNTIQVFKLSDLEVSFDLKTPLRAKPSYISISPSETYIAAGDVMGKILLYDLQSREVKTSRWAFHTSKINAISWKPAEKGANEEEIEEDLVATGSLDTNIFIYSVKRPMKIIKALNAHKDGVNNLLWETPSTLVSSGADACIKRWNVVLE

[2] = biological target: T2, Emi2p (spotted on the yeast ProtoArray) (S. cerevisiae, UniProt Q04409 1-500)
T2 sequence (looked up): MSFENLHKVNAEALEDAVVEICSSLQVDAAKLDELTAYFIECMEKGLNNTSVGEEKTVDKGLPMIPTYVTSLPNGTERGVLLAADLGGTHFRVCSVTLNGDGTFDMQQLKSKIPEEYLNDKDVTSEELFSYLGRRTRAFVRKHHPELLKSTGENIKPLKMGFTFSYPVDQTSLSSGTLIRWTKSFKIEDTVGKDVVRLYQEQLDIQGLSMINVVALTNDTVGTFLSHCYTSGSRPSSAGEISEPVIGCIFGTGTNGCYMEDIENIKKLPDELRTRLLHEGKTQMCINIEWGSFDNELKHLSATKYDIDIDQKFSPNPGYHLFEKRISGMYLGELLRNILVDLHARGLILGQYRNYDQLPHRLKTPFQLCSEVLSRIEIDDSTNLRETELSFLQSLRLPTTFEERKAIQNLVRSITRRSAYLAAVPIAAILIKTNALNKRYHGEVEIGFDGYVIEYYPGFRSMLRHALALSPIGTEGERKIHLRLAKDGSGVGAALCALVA

[3] = biological target: T3, Gpp2p (spotted on the yeast ProtoArray) (S. cerevisiae, UniProt P40106 1-250)
T3 sequence (looked up): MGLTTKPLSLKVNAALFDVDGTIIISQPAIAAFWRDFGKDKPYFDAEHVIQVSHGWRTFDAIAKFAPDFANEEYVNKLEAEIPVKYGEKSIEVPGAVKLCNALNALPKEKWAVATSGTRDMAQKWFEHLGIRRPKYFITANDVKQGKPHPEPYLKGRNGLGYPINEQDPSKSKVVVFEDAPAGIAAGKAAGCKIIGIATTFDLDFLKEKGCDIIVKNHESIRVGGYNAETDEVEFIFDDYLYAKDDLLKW

Measured: binding result

B1: purified and biotinylated cytoplasmic domain of the Msb2p protein (HIS-Msb2p^CYT) (domain or fragment, S. cerevisiae, UniProt P32334 1207-1306, looked up)
chain: AFKYIIRRRIQSQEIIKNPEISSISSSEFGGEKNYNNEKRMSVQESITQSMRIQNWMDDSYYGHGLTNNDSTPTRHNTSSSIPKISRPIASQNSLGWNEV
modifications: biotinylated in vitro (sites not given)
binds: all assays above
